Experimental data: the RNAGym collection of RNA variant scans (doi:10.1073/pnas.2313332121)
Fewer inactive variants are shown than the library holds.

B1: TPR 5TU (parent)
chain: GGAUCUUCUCGAUCUAACAAAAAAGACAAAUCUGCCACAAAGCUUGAGAGCAUCUUCGGAUGCAGAGGCGGCAGCCUUCGGUGGCGCGAUAGCGCCAACGUUCUCAACUAUGACACGCAAAACGCGUGCUCCGUUGAAUGGAGUUUAUCAUG

Variants of: B1
Test: polymerase ribozyme fitness, log enrichment relative to wild type (log ratio); higher = more active; in vitro selection for triplet polymerase activity
Outline: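 Mutant libraries of each subunit of a heterodimeric triplet polymerase ribozyme were built by PCR and transcribed. Each library went through one round of in vitro selection in triplicate: annealing with biotinylated primer, partner subunit and triplets, frozen incubation at −7 °C, gel excision of extended constructs, streptavidin-bead capture and RT-PCR. Input and output libraries were Illumina-sequenced; only genotypes with ≥10 input reads and ≥1 read per output were kept. Fitness is log2(genotype enrichment/wild-type enrichment), using inverse-variance-weighted replicate averages.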

Variant	polymerase ribozyme fitness (log ratio)
GGAUCUUCUCGAUCUAACAAAAAAGACAAAUCUGCCACAAAGCUUGAGAGCAUCUUCGGAUGCAGAGACGGCAGCCUUCGGUGGCGCGAUAGCGCCAACGUUCUCAACUAUGACACGCAAAACGCGUGCCCCGUUGAAUGGAGUUUAUCAUG [G68A U130C]	-3.95
GGAUCUUCUCGAUCUAACAAAAAAGACAAAUCUGCCACAAAGCUUGAGAGCAUCUUCGGAUGCAGAGCCGGCAGCCUUCGGUGGCGCGAUAGUGCCAACGUUCUCAACUAUGUCACGCAAAACGCGUGCUCCGUUGAAUGGAGUUUAUCAUG [G68C C93U A113U]	≤ -4.2
GGAUCUUCUCGAUCUAACAAAAAAGACAAAUCUGCCACAAAGCUUGAGAGCAUCUUCGGAUGCAGAGACGGCAGCCUUCGGUGGCGCGAUAGAGCCAACGUUCUCAAAUAUGACACGCAAAACGCGUGCUCCGUUGAAUGGAUUUUAUCAUG [G68A C93A C108A G143U]	≤ -4.2
GGAUCUUCUCGAUCUAACAAAAAAGACAAAUCUGCCACAAAGCUUGAGAGCAUCUUCGGAUGCAGAGGAGGCAGCCUUCGGUGGCGCGAUAGCGCCAACGUUCUCAACUAUGACUCGCAAAACGCGUGCUCCGUUGAAUGGAGUUUAUCAUG [C69A A115U]	-2.49
GGAUCUUCUCGAUCUAACAAAAAAGACAAAUCUGCCACAAAGCUUGAGAGCAUCUUCGGAUGCAGAGGAGGCAGCGUUAGGUGGCGCGAUAGCGCCAACGUACUCAACUAUGACACGCAAAACGCGUGCUCCGUUGAAUGCAGUUUAUCAUG [C69A C76G C79A U102A G141C]	≤ -4.2
GGAUCUUCUCGAUCUAACAAAAAAGACAAAUCUGCCACAAAGCUUGAGAGCAUCUUCGGAUGCAGAGACGGCAGCCUUCGGUUGCGCGAUAGCGCCAACGUUCUCAACUAUGACACGGAAAACGCGUGCUCCGUUUAAUGGAGUUUAUCAUG [G68A G83U C118G G136U]	≤ -4.2
GGAUCUUCUCGAUCUAACAAAAAAGACAAAUCUGCCACAAAGCUUGAGAGCAUCUUCGGAUGCAGAGACGGCAGCCUUCGGUGGCGGGAUAGCGCCAACGUUCGCAACUAUGACACGCAAAACGCGUGCUCCGUUGAAUGGAGUUUAUCAUG [G68A C87G U104G]	≤ -4.2
GGAUCUUCUCGAUCUAACAAAAAAGACAAAUCUGCCACAAAGCUUGAGAGCAUCUUCGGAUGCAGAGACGGCAGACAUCGGUGGCGCGAUAGCGACGACGUUCUCAACUAUGACACGCAAAACGCGUGCUCCGUUGAAUGGAGUUUAUCAUG [G68A C75A U77A C95A A97G]	≤ -4.2
GGAUCUUCUCGAUCUAACAAAAAAGACAAAUCUGCCACAAAGCUUGAGAGCAUCUUCGGAUGCAGAGACGCCAGCCUUCGGUGGCGCGAUAGCGACAACGUUCUCAACUAUGACAUGCAAAACGCGUGCUCCGUUGAAUGGAGUUUAUCAUG [G68A G71C C95A C116U]	≤ -4.2
GGAUCUUCUCGAUCUAACAAAAAAGACAAAUCUGCCACAAAGCUUGAGAGCAUCUUCGGAUGCAGAGACGGAAGCCUUCCGUGGCGCGAUAGCACCAACGUUCUCAACUAUGACACGCAAAACGCGUGCUCCGUUGAAUGGAGUUUAUCAUG [G68A C72A G80C G94A]	≤ -4.2
GGAUCUUCUCGAUCUAACAAAAAAGACAAAUCUGCCACAAAGCUUGAGAGCAUCUUCGGAUGCAGAGCCGGCAGCCUUCGGUGGCGCGAUAGCGCGAACGUUCUCAACUAUGACACGCAAAACGCGUGCUCCGUUGAAAGGAGUUUAUCAUG [G68C C96G U139A]	≤ -4.2
GGAUCUUCUCGAUCUAACAAAAAAGACAAAUCUGCCACAAAGCUUGAGAGCAUCUUCGGAUGCAGAGCCGGCAGCCUUCGGUGGCGCGAUAGUGCCAACGUUCUCAACUAUGACACGCAAAACGCGUGCUCCGUUGAAUAGAGUUUGUCAUG [G68C C93U G140A A147G]	≤ -4.2
GGAUCUUCUCGAUCUAACAAAAAAGACAAAUCUGCCACAAAGCUUGAGAGCAUCUUCGGAUGCAGAGUCGGCAGCCUUCGGUGGGGCGAUAGCGCCAACGUUCUCAACUAUGACACGCAAAACGCGUGCUCCGUUGAAAGGAGUGGAUCAUG [G68U C85G U139A U145G U146G]	≤ -4.2
GGAUCUUCUCGAUCUAACAAAAAAGACAAAUCUGCCACAAAGCUUGAGAGCAUCUUCGGAUGCAGAGCCGGCAGCCUUCGGUCGCGCGAUAGCGCCAACGUUCUCAACUAUGACACGCAAAACGCGUGCUCCGUUGAAUGGAGUUUAUCAUG [G68C G83C]	≤ -4.2
GGAUCUUCUCGAUCUAACAAAAAAGACAAAUCUGCCACAAAGCUUGAGAGCAUCUUCGGAUGCAGAGCCGGCAGCCUUCGUUGGCGCGAUAGCGCUAACGUUCUCAACCAUGACACGCAAAACGCGUGCUCCGUUGAAUGGAGUUUAUCAUG [G68C G81U C96U U109C]	≤ -4.2
GGAUCUUCUCGAUCUAACAAAAAAGACAAAUCUGCCACAAAGCUUGAGAGCAUCUUCGGAUGCAGAGCCGGCAGCCUUCGGUGGCGCGGUAGCACCAACGUUCUCAACUAUGUCACGCAAAACGCGUGCUCCGUUGAAUGGAGUUUAUCAUG [G68C A89G G94A A113U]	≤ -4.2
GGAUCUUCUCGAUCUAACAAAAAAGACAAAUCUGCCACAAAGCUUGAGAGCAUCUUCGGAUGCAGAGCCGGCAGCCUUCGGUGGCUCGUUAGCGCAAACGUUCUCAACUUUGAUACGCAAAACGCGUGCUCCGUUGAAUGGAGUUUAUCAUG [G68C G86U A89U C96A A110U C114U]	≤ -4.2
GGAUCUUCUCGAUCUAACAAAAAAGACAAAUCUGCCACAAAGCUUGAGAGCAUCUUCGGAUGCAGAGACGGCAGCCUUCGGUAGCGCGAUAGCGCCAACGUUCUCAACUAUGACAUGCAAAACGCGUGCUCCGUUGAAUGGAGUUUAUCAUG [G68A G83A C116U]	≤ -4.2
GGAUCUUCUCGAUCUAACAAAAAAGACAAAUCUGCCACAAAGCUUGAGAGCAUCUUCGGAUGCAGAGUCGGCAGCCUUCGGUGGCGCGAUAGCGCCAACGUUCUCAACUAUGACACGCAAAACGCGUGCUCCGUUGAAUGGAGUUUAUCGUG [G68U A150G]	≤ -4.2

Variant	polymerase ribozyme fitness (log ratio)
GGAUCUUCUCGAUCUAACAAAAAAGACAAAUCUGCCACAAAGCUUGAGAGCAUCUUCGGAUGCAGAGACGGCAGCCUUCGGUGGCGCGAUAGCGCCAACGUUCUCAACUAUGACACGCUAAUCGCGUGCUCCGUUGAAUGGAGUUUAACAUG [G68A A119U A122U U148A]	≤ -4.2
GGAUCUUCUCGAUCUAACAAAAAAGACAAAUCUGCCACAAAGCUUGAGAGCAUCUUCGGAUGCAGAGGAGGCAGCCUUCGGUGGCGCGAUAGCGCCAACGUUCUCAACUAUGACACGCACAACGCGUGCUCCGUUGAAUGGAGUUUAUCAUG [C69A A120C]	-1.7
GGAUCUUCUCGAUCUAACAAAAAAGACAAAUCUGCCACAAAGCUUGAGAGCAUCUUCGGAUGCAGAGUCGGCAGCCUUCGGUGGCGCGAUAGCGCCAACGUUCUCAACUAUGACACGCAAAACGCGUGUUCCGUUGAAUGGAGUUUAUCAUG [G68U C129U]	≤ -4.2
GGAUCUUCUCGAUCUAACAAAAAAGACAAAUCUGCCACAAAGCUUGAGAGCAUCUUCGGAUGCAGAGCCGGCAGCCUUCGGUGGCGCGAUAGCGCCAACGUUCUCAACUAUGACACGCAAAACGCGUGCUCCGUUUAAUGGGGUUUAUCAUG [G68C G136U A142G]	≤ -4.2
GGAUCUUCUCGAUCUAACAAAAAAGACAAAUCUGCCACAAAGCUUGAGAGCAUCUUCGGAUGCAGAGUCGGCAGCCUUCGGUGGCGCGAUAGCGCCAACGUUCUCAACUAUGACACGCAAAACGCGUGCUCCGUUAAAUGGAGUUUAUCAUG [G68U G136A]	-3.9
GGAUCUUCUCGAUCUAACAAAAAAGACAAAUCUGCCACAAAGCUUGAGAGCAUCUUCGGAUGCAGAGGAGGCAGCCUUCGGUGGAGCGAUAGCGCCAACGUUCUCAACUAUGACACGCAAAACUCGUGCUCCGUUGAAUGGAGUUUAUCAUG [C69A C85A G124U]	-2.55
GGAUCUUCUCGAUCUAACAAAAAAGACAAAUCUGCCACAAAGCUUGAGAGCAUCUUCGGAUGCAGAGCCGGCAGCCUUCGGUGGCGCGCUAGCGCAAACGUUCUCAACUAUGGCACGCAAAACCCGUGCUCCGCUGAAUGGAGUUUAUCAUG [G68C A89C C96A A113G G124C U134C]	≤ -4.2
GGAUCUUCUCGAUCUAACAAAAAAGACAAAUCUGCCACAAAGCUUGAGAGCAUCUUCGGAUGCAGAGACGGCAGCCUUCGGUGGCGAGAUAGCGCCAACGUUCUCAGCUAUGACACUCAAAACGCGUGCUCGGUUGAAUGGAGUUUAUCAUG [G68A C87A A107G G117U C132G]	≤ -4.2
GGAUCUUCUCGAUCUAACAAAAAAGACAAAUCUGCCACAAAGCUUGAGAGCAUCUUCGGAUGCAGAGCCGGCAGCCUUCGGUUGCGCGAUAACGCCAACGUACUCAACUAUGACACGCAAAACGCGUGCUCCGUUGGAUGGGGUUUAUCAUG [G68C G83U G92A U102A A137G A142G]	≤ -4.2
GGAUCUUCUCGAUCUAACAAAAAAGACAAAUCUGCCACAAAGCUUGAGAGCAUCUUCGGAUGCAGAGACGGCAGCCUUCGGUGGCGCGAUAGCCCCAACGUUCUCAACUAUGACACGCAAAACGCGUGCUCCGUUGAAUGGAGUUUAUCAUG [G68A G94C]	-4.03
GGAUCUUCUCGAUCUAACAAAAAAGACAAAUCUGCCACAAAGCUUGAGAGCAUCUUCGGAUGCAGAGACGGCAGCCUUCGGUGUCGCGAUAGCGCCAACGUUCUCAACUAUGACACGCAAAACGCGUGCUGCGUUGAAUGGAUUUUAUCAUG [G68A G84U C131G G143U]	≤ -4.2
GGAUCUUCUCGAUCUAACAAAAAAGACAAAUCUGCCACAAAGCUUGAGAGCAUCUUCGGAUGCAGAGUCGGCAGCCUUCGGUGGCGCGAUAGCGCCAACGUUCUCAACUAUGACACGCAAAACGCGUGCUCCGGUGAAUGGAGUUUAUCAUG [G68U U134G]	≤ -4.2
GGAUCUUCUCGAUCUAACAAAAAAGACAAAUCUGCCACAAAGCUUGAGAGCAUCUUCGGAUGCAGAGACGGCAGCCUUCGAUGGCGCGAUAGCGACAACGUUCUCAACUAUGACACGCAAAACGCGUGCUCCGUUGAAUGGAGUUUAUCCUA [G68A G81A C95A A150C G152A]	≤ -4.2
GGAUCUUCUCGAUCUAACAAAAAAGACAAAUCUGCCACAAAGCUUGAGAGCAUCUUCGGAUGCAGAGACGGCAGCCUUCGGUGGCGCGAUAGCGCUAACGUUCUCAACUAUGACACGCAAAACGCGUGCUCCGUUGAAUGGAGUUUAUCAUG [G68A C96U]	-3.68
GGAUCUUCUCGAUCUAACAAAAAAGACAAAUCUGCCACAAAGCUUGAGAGCAUCUUCGGAUGCAGAGGAGGCAGCCUUCGGUGGCGCGAUAGCGCCAACGUUCUCAACUAUGACACGCAAGACGCGUGCUCCGUUGAAUGGAGUUUAUCAUG [C69A A121G]	-1.74
GGAUCUUCUCGAUCUAACAAAAAAGACAAAUCUGCCACAAAGCUUGAGAGCAUCUUCGGAUGCAGAGCCGGCAGCCUUCGGUGGCGCGAUAGCGCCAAGGUUCUCAACUAUGACACGCAAAACGCGUGCUCCGUUGAAUGGAGUUUAUCAUG [G68C C99G]	≤ -4.2
GGAUCUUCUCGAUCUAACAAAAAAGACAAAUCUGCCACAAAGCUUGAGAGCAUCUUCGGAUGCAGAGACGGCAGACUUCGGUGGCGCGAUAGCGCCAACGUUCUCAACUAUGACACGCAAAACGCGUACUCCGUUGAAUGGAGUUUAUCCUG [G68A C75A G128A A150C]	≤ -4.2
GGAUCUUCUCGAUCUAACAAAAAAGACAAAUCUGCCACAAAGCUUGAGAGCAUCUUCGGAUGCAGAGUCGGCAGCCUUCGGUGGCGCGAUGGCGCCAACGUUCUCAACUAUGACACGCAAAACGCGUGCUCCGUUGAAUGGAGUUUAUCAUG [G68U A91G]	≤ -4.2
GGAUCUUCUCGAUCUAACAAAAAAGACAAAUCUGCCACAAAGCUUGAGAGCAUCUUCGGAUGCAGAGACGGCAGCCUUCGGUGGCGGGAUAGCGCCAACGUUCUCAACUAUGACACGCAAAACGCGUUCUCCGUUGAAUGGAGUUUAUCAUG [G68A C87G G128U]	≤ -4.2
